{"source": "paper PMC3192265", "about": "(Molecular microbiology, 2011)", "binders": {"B1": {"name": "his-YabA (recombinant YabA with a hexa-histidine tag at its N-terminus) (natural protein)", "chain": "not shown"}}, "target": "T1, B. subtilis DnaA (no tag) (B. subtilis, UniProt P05648 1-446)", "T1 sequence (looked up)": "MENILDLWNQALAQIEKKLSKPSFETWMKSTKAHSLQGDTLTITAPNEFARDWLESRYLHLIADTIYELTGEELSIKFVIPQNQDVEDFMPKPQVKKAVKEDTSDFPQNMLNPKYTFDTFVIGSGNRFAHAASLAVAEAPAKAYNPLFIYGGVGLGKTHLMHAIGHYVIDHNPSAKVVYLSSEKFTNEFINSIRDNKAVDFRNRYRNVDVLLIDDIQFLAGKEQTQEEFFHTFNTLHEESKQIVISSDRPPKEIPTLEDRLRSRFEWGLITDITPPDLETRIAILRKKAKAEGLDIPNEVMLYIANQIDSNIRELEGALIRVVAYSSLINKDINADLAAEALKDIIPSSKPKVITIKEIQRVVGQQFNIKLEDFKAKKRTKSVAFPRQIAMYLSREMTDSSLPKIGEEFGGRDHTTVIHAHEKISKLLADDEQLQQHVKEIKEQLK", "assay": "native gel or EMSA", "data": [{"binder": "B1", "values": [{"measurement": "binding result", "value": "binds"}]}]}
